Data reported in patent publication US20230192837A1 (published 2023).
Where a chain is given by its changes, count along the chain named.

B1: Ab1 (antibody, human IgG1, kappa, V domains shown)
VH: QVQLVQSGAEVKKPGASVKVSCKASGYTFTGYYIHWVRQAPGQGLEWMGWINPYTGGTNYAQKFQGRVTMTRDTSISTAYMELSRLRSDDTAVYYCARDLYGSSNYGGDVWGQGTTVTVSS
VL: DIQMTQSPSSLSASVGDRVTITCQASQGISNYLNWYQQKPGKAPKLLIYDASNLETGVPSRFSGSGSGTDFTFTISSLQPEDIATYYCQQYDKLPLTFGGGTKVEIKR
notes: Human IgG1 with kappa light chain, expressed in CHO cells; also called exemplified anti-human TNFα antibody Ab1
B2: Ab5 (antibody, human IgG1, kappa, V domains shown)
VH: B1 VH with I34M, N59K, G108M
VL: DIQMTQSPSSLSASVGDRVTITCQASQGIRNYLNWYQQKPGKAPKLLIYDASNLETGVPSRFSGSGSGTDFTFTISSLQPEDIATYYCQQYDKLPLTFGGGTKVEIKR
B3: Ab3 (antibody, human IgG1, kappa, V domains shown)
VH: B1 VH with I34M, N59K, G108M
VL: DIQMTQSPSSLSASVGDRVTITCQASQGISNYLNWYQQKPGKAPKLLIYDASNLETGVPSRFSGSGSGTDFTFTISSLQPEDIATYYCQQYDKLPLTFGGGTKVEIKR
B4: Ab4 (antibody, human IgG1, kappa, V domains shown)
VH: B1 VH with I34M, N59K, G108M
VL: not shown
B5: Ab2 (antibody, human IgG1, kappa, V domains shown)
VH: B1 VH with G108M
VL: not shown

What follows are binders tested against T1, rhesus macaque TNFα (rhesus macaque, UniProt P48094 77-233) (assay: antigen-down ELISA, TNFα coated on plate, anti-human kappa-AP detection).
T1 construct: Bought (R&D Systems, Cat #1070-RM); also called rhesus macaque monkey TNFα
T1 sequence (P48094 77-233 limits assumed): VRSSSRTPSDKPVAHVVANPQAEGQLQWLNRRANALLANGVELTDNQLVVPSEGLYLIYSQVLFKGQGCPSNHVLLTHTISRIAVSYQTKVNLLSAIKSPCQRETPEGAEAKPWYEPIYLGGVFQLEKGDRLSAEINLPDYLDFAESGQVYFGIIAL
Method: Once the color developed (approximately 15-30 min), plates were read at 560 nm OD on a Molecular Device Spectramax plate reader and data was acquired using Softmax Pro 4.7 software. Data analysis was performed in GraphPad Prism.

In the case of B1, the EC50 is reported as 0.155 µg/mL.

These binders were tested against membrane human TNFα (non-cleavable TNFα) expressed on CHO cells (human, UniProt P01375 1-233) (assay: cell-based or functional assay).

In the case of B2, the “IC50 of inhibition of membrane TNFα-induced cell killing of L929 cells” value is reported as 0.2 µg/mL.

The binders below were run against T2, human TNFα (human, UniProt P01375 57-233, limits assumed) (assay: cell-based or functional assay).
T2 sequence (P01375 57-233 limits assumed, form in doubt): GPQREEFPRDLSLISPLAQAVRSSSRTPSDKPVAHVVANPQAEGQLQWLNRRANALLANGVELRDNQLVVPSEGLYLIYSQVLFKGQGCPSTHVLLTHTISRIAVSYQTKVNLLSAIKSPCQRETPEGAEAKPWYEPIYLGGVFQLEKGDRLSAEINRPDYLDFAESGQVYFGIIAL

B3 and B2 are within 1.5-fold of each other in “IC50 of inhibition of soluble human TNFα induced cell killing of L929 cells” value: 0.19 µg/mL for the first, 0.22 µg/mL for the second.

B4 and B1 are within 1.5-fold of each other in “IC50 of inhibition of soluble human TNFα induced cell killing of L929 cells” value: 0.19 µg/mL for the first, 0.16 µg/mL for the second.

B5 was tested, and the “IC50 of inhibition of soluble human TNFα induced cell killing of L929 cells” value was 0.13 µg/mL.

Each binder was assayed against cynomolgus monkey TNFα (cynomolgus monkey, UniProt P79337 57-233, limits assumed) (assay: cell-based or functional assay).
Sequence of cynomolgus monkey TNFα (P79337 57-233 limits assumed, form in doubt): as the sequence (P01375 57-233 limits assumed, form in doubt) above, with R9K, L11P, L57V, R64T, T92N, R158L counted along it

Compared with B3, B2 is 1.5-fold higher in “IC50 of inhibition of soluble cynomolgus monkey TNFα induced cell killing of L929 cells” value: 0.02 µg/mL for the first, 0.03 µg/mL for the second.

B4 and B1 are the same in “IC50 of inhibition of soluble cynomolgus monkey TNFα induced cell killing of L929 cells” value: 0.02 µg/mL for the first, 0.02 µg/mL for the second.

With B5 the “IC50 of inhibition of soluble cynomolgus monkey TNFα induced cell killing of L929 cells” value was 0.02 µg/mL.

Target: T2, human TNFα
Assay: cell-based or functional assay
Remark: another data set of the same source

First: B3
Second: B2
The “% Inhibition of human TNFα-induced plasma CXCL1 in C57/B6 mice, dose 0.3 mg/kg” value (from here on “% Inhibition … dose 0.3 mg/kg”) of the first is higher: 64.4% for the first, 49.8% for the second.

First: B4
Second: B1
The “% Inhibition … dose 0.3 mg/kg” value of the first is lower: 57.2% for the first, 63% for the second.

For B5, the “% Inhibition … dose 0.3 mg/kg” value was 46.5%.

Compared with B3, B2 is lower in “% Inhibition of human TNFα-induced plasma CXCL1 in C57/B6 mice, dose 3 mg/kg” value (“% Inhibition … dose 3 mg/kg” below): 86.6% for the first, 84.3% for the second.

First: B4
Second: B1
The “% Inhibition … dose 3 mg/kg” value of the first is higher: 92.6% for the first, 83.9% for the second.

For B5, the “% Inhibition … dose 3 mg/kg” value was 82.1%.
